# Data from patent US20240190999A1 (Molecular Partners, published 2024).
# T1: biotinylated mouse 4-1BB (bio.m4-1BB) (mouse, UniProt P20334 24-187, limits assumed, biotinylated (site not stated))
# T1 sequence (looked up): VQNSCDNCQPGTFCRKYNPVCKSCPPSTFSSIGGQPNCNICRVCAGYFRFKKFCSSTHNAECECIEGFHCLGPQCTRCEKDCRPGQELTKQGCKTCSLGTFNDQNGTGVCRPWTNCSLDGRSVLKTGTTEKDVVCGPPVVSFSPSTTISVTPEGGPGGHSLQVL
# T2: cynomolgus FAP (cFAP) (cynomolgus monkey)
# T2 chain: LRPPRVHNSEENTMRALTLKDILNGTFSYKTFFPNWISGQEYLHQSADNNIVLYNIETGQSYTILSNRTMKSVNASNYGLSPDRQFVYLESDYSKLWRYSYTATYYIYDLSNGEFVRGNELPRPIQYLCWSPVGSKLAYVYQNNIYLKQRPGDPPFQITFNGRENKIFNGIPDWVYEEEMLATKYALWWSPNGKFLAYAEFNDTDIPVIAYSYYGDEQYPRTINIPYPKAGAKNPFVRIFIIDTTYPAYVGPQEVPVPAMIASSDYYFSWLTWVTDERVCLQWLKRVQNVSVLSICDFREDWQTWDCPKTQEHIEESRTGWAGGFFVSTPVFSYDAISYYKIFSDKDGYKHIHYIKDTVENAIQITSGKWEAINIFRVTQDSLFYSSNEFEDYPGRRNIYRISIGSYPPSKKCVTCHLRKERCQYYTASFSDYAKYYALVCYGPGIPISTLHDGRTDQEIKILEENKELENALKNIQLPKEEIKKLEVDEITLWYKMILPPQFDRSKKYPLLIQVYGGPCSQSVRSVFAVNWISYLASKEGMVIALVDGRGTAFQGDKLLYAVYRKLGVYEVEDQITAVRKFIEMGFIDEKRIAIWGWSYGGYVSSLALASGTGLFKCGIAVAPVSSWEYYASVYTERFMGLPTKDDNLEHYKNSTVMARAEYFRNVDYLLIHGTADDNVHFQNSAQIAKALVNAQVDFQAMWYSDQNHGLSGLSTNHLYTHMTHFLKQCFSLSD
# Columns and labels:
# [1] = target: T3, biotinylated human 4-1BB (bio.h4-1BB) (human, UniProt Q07011 24-186, limits assumed, biotinylated (site not stated)); assay: SPR (ProteOn XPR36), biotinylated human 4-1BB immobilised, construct as analyte
# T3 construct: also called CD137
# [2] = target: T4, human fibroblast activation protein (hFAP) (human, UniProt Q12884 26-760, limits assumed); assay: SPR (ProteOn XPR36), hFAP immobilised on GLC chip, construct as analyte
# T4 construct: Recombinant soluble protein; also called human FAP; rhFAP
# Procedure: (§1) Assay set-up: Briefly, SPR measurements were performed using a ProteOn XPR36 instrument (BioRad) as described above. Biotinylated human and cynomolgus 4-1BB and human FAP were immobilized either directly or indirectly via NeutrAvidin (˜6000 RU pre-coated) on a GLC chip to reach 600 RU, 700 RU and 2000 RU, respectively. The interaction of FAP-4-1BB bispecific constructs to the coated targets was measured by injecting the bispecific constructs in a serial dilution of 50, 16.7, 5.6, 1.9 and 0.6 nM with an association of 120 s and dissociation of 1800 s using a constant flow rate of 30 μl/min. Targets were regenerated between the individual measurements using 10 mM glycine pH 2 and 124 mM H₃PO₄. The signals were double referenced against the running buffer (PBST) treated control lane.
# Target sequence in this assay (Q12884 26-760 limits assumed): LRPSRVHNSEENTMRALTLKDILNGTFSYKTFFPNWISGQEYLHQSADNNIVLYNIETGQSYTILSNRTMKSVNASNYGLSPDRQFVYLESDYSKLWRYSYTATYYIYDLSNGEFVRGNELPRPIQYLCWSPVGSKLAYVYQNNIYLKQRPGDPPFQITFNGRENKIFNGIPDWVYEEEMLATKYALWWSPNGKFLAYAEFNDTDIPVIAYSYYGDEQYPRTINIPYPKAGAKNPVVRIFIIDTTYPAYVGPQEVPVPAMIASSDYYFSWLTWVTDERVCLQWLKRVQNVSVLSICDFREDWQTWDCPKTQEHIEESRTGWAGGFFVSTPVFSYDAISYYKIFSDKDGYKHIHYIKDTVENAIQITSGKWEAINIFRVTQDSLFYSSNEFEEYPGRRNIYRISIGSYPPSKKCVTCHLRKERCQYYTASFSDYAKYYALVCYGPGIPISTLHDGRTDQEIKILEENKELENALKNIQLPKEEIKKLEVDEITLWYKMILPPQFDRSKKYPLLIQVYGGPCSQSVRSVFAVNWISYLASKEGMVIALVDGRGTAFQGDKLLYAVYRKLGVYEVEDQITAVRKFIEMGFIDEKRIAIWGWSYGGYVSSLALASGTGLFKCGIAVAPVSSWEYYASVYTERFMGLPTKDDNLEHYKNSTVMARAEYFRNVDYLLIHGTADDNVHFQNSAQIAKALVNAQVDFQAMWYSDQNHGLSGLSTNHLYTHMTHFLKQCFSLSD
# [3] = target: T5, human 4-1BB on transfected HT1080 NF-kB-luciferase reporter cells (human, UniProt Q07011 24-255); assay: cell-based or functional assay
# [4] = target: T3, biotinylated human 4-1BB (bio.h4-1BB); assay: SPR (ProteOn XPR36), biotinylated h4-1BB immobilised on GLC chip, construct as analyte
# Procedure: as §1
# [5] = target: T5, human 4-1BB on transfected HT1080 …; assay: cell-based or functional assay; remark: listed apart in the source
# [6] = target: T4, human fibroblast activation protein …; assay: SPR (ProteOn XPR36); end of the group's range, tied to #44 by Table 15
# Procedure: as §1
# Target sequence in this assay (Q12884 26-760 limits assumed): as above
# [7] = target: T5, human 4-1BB on transfected HT1080 …; assay: cell-based or functional assay; remark: listed apart in the source
# [8] = target: T5, human 4-1BB on transfected HT1080 …; assay: cell-based or functional assay; remark: listed apart in the source
# [9] = target: T3, biotinylated human 4-1BB (bio.h4-1BB); assay: SPR (ProteOn XPR36), bio.h4-1BB on NLC chip, MpA analyte; mean of triplicate
# Procedure: (§2) ProteOn setup for MpA binding to 4-1BB of different species: SPR measurements were performed using a ProteOn XPR36 instrument (BioRad). The running buffer was PBS pH 7.4 containing 0.005% Tween 20® (PBST). The bio.h4-1BB, bio.c4-1BB and bio.m4-1BB were immobilized on NLC chips (BioRad) to a level of 320 RU. The binding of MpA to 4-1BB was measured by injecting MpA in a serial dilution of 30, 10, 3.3, 1.1 and 0.3 nM with an association of 180 s and dissociation of 1800 s using a constant flow of 100 μl/min (see Table 3). The measurement was repeated three times and the targets were regenerated between the individual measurements using 10 mM glycine pH 2 and 124 mM H₃PO₄. The signals were double referenced against the running buffer (PBST) treated control lane of L1 and A6. h4-1BB, c-4-1BB, and m4-1BB refer to human, cynomolgus, and mouse orthologs of 4-1BB, respectively.
# [10] = target: T6, human 4-1BB on primary human CD8 T cells (human, UniProt Q07011 24-255); assay: cell-based or functional assay
# [11] = target: mouse serum albumin (MSA) (mouse, UniProt P07724 25-608); assay: SPR (ProteOn XPR36), MpA captured on bio.h4-1BB, MSA analyte, 1:1 Langmuir fit
# Procedure: (§3) ProteOn setup for MpA binding to serum albumin of different species: SPR measurements were performed using a ProteOn XPR36 instrument (BioRad). The running buffer was PBS pH 7.4 containing 0.005% Tween 20® (PBST). First, bio.h4-1BB was coated on NLC chip (BioRad) to a level of 320 RU before […] MpA was immobilized for 180 s at constant flow of 30 μl/min to a level of 200 RU. The binding of the serum albumin to MpA was detected by applying HSA (human serum albumin), CSA (cynomolgus serum albumin) and MSA (mouse serum albumin) as titration with a 180 s association and 1800 s dissociation phase using a constant flow of 100 μl/min. HSA, CSA and MSA binding was measured serially and the bio.h4-1BB/MpA complex was regenerated each time with 10 mM glycine pH 2 and 124 mM H3P04. Thus, MpA had to be recoated after each regeneration step. The signals were double referenced against the running buffer (PBST) treated control lane of L1 and A6. The 1:1 Langmuir model was used for the fitting.
# [12] = target: human serum albumin (HSA) (human, UniProt P02768 25-609); assay: SPR (ProteOn XPR36), MpA captured on bio.h4-1BB, HSA analyte, 1:1 Langmuir fit
# Procedure: as §3
# [13] = target: T1, biotinylated mouse 4-1BB (bio.m4-1BB); assay: SPR (ProteOn XPR36), bio.m4-1BB on NLC chip, MpA as analyte
# Procedure: as §2
# [14] = target: T4, human fibroblast activation protein …; assay: SPR (ProteOn XPR36), hFAP on GLC chip, MpA analyte, 1:1 Langmuir fit; mean of duplicate
# Procedure: (§4) ProteOn setup for MpA binding to FAP of different species: SPR measurements were performed using a ProteOn XPR36 instrument (BioRad). The running buffer was PBS pH 7.4 containing 0.005% Tween 200 (PBST). hFAP (human FAP), cFAP (cynomolgus FAP) and mFAP (mouse FAP) were immobilized on a GLC chip (BioRad) at pH 5.3 to a level of 2000 RU, 1700 RU and 5000 RU, respectively. The interaction of FAP and MpA was measured by applying the MpA molecule as titration (see Table 2).
# Two independent measurements were conducted to detect the binding of MpA to hFAP. The targets were regenerated using 10 mM glycine pH 2 and 124 mM H₃PO₄. The signals were double referenced against the PBST treated control lane of L1 and A6. The 1:1 Langmuir model was used for the fitting.
# [15] = target: T6, human 4-1BB on primary human CD8 T cells; assay: cell-based or functional assay; remark: listed apart in the source
# cynomolgus FAP (cFAP) = target: T2, cynomolgus FAP (cFAP); assay: SPR (ProteOn XPR36), cFAP on GLC chip, MpA analyte, 1:1 Langmuir fit
# Procedure: as §4
# [16] = target: cynomolgus serum albumin (CSA) (cynomolgus monkey, UniProt A2V9Z4 25-608); assay: SPR (ProteOn XPR36), MpA captured on bio.h4-1BB, CSA analyte, 1:1 Langmuir fit
# Procedure: as §3
# mouse FAP (mFAP) = mouse FAP (mFAP) (mouse, UniProt P97321 26-761, limits assumed); assay: SPR (ProteOn XPR36), mFAP on GLC chip, MpA as analyte
# Procedure: as §4
# [17] = target: T3, biotinylated human 4-1BB (bio.h4-1BB); assay: SPR (ProteOn XPR36), bio.h4-1BB on NLC chip, MpA analyte; mean of triplicate; apparent affinity (bivalent)
# Procedure: as §2
# T5 sequence (Q07011 24-255 limits assumed): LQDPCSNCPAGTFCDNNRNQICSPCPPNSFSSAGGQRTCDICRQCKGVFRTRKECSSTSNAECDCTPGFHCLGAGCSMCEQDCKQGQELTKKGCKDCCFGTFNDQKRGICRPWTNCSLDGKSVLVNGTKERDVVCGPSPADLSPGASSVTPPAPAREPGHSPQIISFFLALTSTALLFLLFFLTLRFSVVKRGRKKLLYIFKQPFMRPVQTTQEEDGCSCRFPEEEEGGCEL
# T6 sequence (Q07011 24-255 limits assumed): as above
# mouse serum albumin (MSA), sequence (P07724 25-608 limits assumed): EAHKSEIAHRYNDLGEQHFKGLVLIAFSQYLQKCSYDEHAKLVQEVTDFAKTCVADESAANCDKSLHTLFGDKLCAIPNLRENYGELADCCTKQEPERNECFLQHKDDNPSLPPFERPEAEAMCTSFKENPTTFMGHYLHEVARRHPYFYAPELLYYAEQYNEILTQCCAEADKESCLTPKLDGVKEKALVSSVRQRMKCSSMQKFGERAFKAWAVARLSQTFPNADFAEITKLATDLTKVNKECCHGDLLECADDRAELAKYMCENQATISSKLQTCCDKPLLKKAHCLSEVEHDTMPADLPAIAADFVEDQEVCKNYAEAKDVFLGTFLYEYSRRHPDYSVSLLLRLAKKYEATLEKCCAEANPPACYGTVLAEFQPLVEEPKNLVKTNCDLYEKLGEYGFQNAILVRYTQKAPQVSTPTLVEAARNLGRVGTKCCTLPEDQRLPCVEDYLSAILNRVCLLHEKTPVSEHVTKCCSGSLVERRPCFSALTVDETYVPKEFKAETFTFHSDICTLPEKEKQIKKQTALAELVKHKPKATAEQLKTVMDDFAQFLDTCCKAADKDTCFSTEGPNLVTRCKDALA
# cynomolgus serum albumin (CSA), sequence (A2V9Z4 25-608 limits assumed): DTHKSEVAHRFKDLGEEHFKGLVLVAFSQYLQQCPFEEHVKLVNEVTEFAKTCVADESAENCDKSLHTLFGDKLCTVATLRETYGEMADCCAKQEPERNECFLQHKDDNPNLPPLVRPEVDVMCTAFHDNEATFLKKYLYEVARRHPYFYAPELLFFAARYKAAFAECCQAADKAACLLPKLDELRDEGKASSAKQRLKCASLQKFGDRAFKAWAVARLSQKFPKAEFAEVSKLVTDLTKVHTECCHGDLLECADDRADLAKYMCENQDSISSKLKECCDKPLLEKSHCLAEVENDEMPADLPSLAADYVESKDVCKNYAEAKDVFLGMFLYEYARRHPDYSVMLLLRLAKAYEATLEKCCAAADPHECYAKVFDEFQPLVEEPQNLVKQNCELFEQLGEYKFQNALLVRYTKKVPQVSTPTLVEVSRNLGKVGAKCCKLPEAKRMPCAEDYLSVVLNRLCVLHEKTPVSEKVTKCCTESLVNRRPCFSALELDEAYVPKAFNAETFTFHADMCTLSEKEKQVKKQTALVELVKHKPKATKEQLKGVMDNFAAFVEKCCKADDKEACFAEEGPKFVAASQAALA
# T3 sequence (Q07011 24-186 limits assumed): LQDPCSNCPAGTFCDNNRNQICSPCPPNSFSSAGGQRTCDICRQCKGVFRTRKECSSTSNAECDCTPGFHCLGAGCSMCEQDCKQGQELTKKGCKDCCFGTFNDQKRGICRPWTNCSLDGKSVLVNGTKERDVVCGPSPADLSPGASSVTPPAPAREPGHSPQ
# mouse FAP (mFAP), sequence (P97321 26-761 limits assumed): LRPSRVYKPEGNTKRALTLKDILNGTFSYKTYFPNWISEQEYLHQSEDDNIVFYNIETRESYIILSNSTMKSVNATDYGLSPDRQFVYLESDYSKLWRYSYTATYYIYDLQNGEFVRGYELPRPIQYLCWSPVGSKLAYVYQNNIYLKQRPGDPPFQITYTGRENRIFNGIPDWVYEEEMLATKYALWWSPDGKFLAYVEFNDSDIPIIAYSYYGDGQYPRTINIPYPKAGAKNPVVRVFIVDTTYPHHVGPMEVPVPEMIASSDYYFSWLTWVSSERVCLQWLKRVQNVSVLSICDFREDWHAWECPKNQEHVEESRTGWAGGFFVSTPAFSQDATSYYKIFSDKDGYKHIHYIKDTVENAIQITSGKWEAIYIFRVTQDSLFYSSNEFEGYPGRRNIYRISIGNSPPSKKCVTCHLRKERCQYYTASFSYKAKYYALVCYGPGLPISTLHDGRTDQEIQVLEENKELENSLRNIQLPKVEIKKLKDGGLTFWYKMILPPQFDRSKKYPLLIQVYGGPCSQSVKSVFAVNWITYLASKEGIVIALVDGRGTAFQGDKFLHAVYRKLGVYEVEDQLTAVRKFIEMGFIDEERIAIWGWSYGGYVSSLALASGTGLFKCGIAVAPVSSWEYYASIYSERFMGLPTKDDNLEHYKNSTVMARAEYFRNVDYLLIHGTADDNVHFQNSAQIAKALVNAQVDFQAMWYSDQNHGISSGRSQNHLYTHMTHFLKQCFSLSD
binder,measurement,setting,value
"bispecific construct #50 (designed binder, also called negative control construct #50) MRGSHHHHHHGSDLGEKLLVAALYGQDDEVRILLAAGADVNAKDQWGLTPLHKAALQGHLEIVEVLLKAGADVNAKDERGHTPLHWAARFGHLEIVEVLLKAGADVNAQDQKGYTPADLAALWGHEDIAEVLQKAAGSPTPTPTTPTPTPTTPTPTPTGSDLGKKLLEAARAGQDDEVRELLKAGADVNAKDKDGYTPLHLAAREGHLEIVEVLLKAGADVNAKDKDGYTPLHLAAREGHLEIVEVLLKAGADVNAQDKSGKTPADLAADAGHEDIAEVLQKAA",binding result,[1],no binding (tested: 50 nM highest concentration injected)
same,Kd,[2],0.22 nM
"bispecific construct #44 (designed binder, also called FAP-4-1BB bispecific construct #44) MRGSHHHHHHGSDLGEKLLVAALYGQDDEVRILLAAGADVNAKDQWGLTPLHKAALQGHLEIVEVLLKAGADVNAKDERGHTPLHWAARFGHLEIVEVLLKAGADVNAQDQKGYTPADLAALWGHEDIAEVLQKAAGSPTPTPTTPTPTPTTPTPTPTGSDLGQKLLKAAQEGQDDEVRELLKAGADVNAKDLRGITPLHVAAWQGHLEIVEVLLKAGADVNAKDSKGETPLHLAAFRGHLEIVEVLLKAGADVNAQDQQGETPADLAALAGHVDIAEVLQKLN","EC50, 4-1BB activation in HT1080 reporter cells in presence of FAP-expressing CHO cells (Population 2)",[3],0.36 nM
same,Kd,[4],1.45 nM
same,Kd,[2],0.36 nM
same,"EC50, 4-1BB activation in HT1080 reporter cells in presence of FAP-beads",[5],4.59 nM
same,Kd,[6],0.1 to 0.4 nM
same,"EC50, 4-1BB activation in HT1080 reporter cells in presence of FAP-expressing CHO cells (Population 1)",[7],0.47 nM
"Multispecific binding protein A (MpA) (designed binder, also called HFBBH) GSDLGKKLLEAARAGQDDEVRELLKAGADVNAKDYFSHTPLHLAARNGHLKIVEVLLKAGADVNAKDFAGKTPLHLAAADGHLEIVEVLLKAGADVNAQDIFGKTPADIAADAGHEDIAEVLQKAAGSPTPTPTTPTPTPTTPTPTPTGSDLGKKLLEAARAGQDDEVRELLKAGADVNAKDVLGWTPLHLAAFEGHLEIVEVLLKAGADVNAKDKKGWTPLQLAARTGHLEIVEVLLKAGADVNAKDHIGATPLHLAAWQGHPEIVEVLLKAGADVNAQDKSGKTPADLAADAGHEDIAEVLQKAAGSPTPTPTTPTPTPTTPTPTPTGSDLGQKLLKAAQEGQDDEVRELLKAGADVNAKDLRGITPLHVAAWQGHLEIVEVLLKAGADVNAKDSKGETPLHLAAFRGHLEIVEVLLKAGADVNAQDQQGETPADLAALAGHVDIAEVLQKAAGSPTPTPTTPTPTPTTPTPTPTGSDLGQKLLKAAQEGQDDEVRELLKAGADVNAKDLRGITPLHVAAWQGHLEIVEVLLKAGADVNAKDSKGETPLHLAAFRGHLEIVEVLLKAGADVNAQDQQGETPADLAALAGHVDIAEVLQKAAGSPTPTPTTPTPTPTTPTPTPTGSDLGKKLLEAARAGQDDEVRELLKAGADVNAKDYFSHTPLHLAARNGHLKIVEVLLKAGADVNAKDFAGKTPLHLAAADGHLEIVEVLLKAGADVNAQDIFGKTPADIAADAGHEDIAEVLQKAA","EC50, NF-κB-luciferase reporter in h4-1BB-HT1080 cells with CHO-hFAP cells",[8],0.41 nM
same,koff,[9],3.2e-05 s⁻¹
same,kon,[9],2.6e+06 M⁻¹ s⁻¹
same,"EC50, IFNγ secretion of human CD8 T cells (plate-coated hFAP)",[10],1 to 2 nM
same,Kd,[11],38 nM
same,koff,[11],0.038 s⁻¹
same,kon,[11],1e+06 M⁻¹ s⁻¹
same,Kd,[12],8 nM
same,koff,[12],0.012 s⁻¹
same,kon,[12],1.5e+06 M⁻¹ s⁻¹
same,binding result,[13],no binding (tested: 30 nM highest concentration injected)
same,Kd,[14],0.4 nM
same,koff,[14],0.00013 s⁻¹
same,kon,[14],470000 M⁻¹ s⁻¹
same,"EC50, IFNγ production by primary human CD8 T cells (anti-CD3 plus plate-coated hFAP)",[15],1.17 nM
same,Kd,cynomolgus FAP (cFAP),0.8 nM
same,koff,cynomolgus FAP (cFAP),0.00013 s⁻¹
same,kon,cynomolgus FAP (cFAP),170000 M⁻¹ s⁻¹
same,Kd,[16],67 nM
same,koff,[16],0.075 s⁻¹
same,kon,[16],1.1e+06 M⁻¹ s⁻¹
same,binding result,mouse FAP (mFAP),no binding (tested: 50 nM highest concentration injected)
same,Kd,[17],0.013 nM
